Data reported in patent publication EP3088890B1 (Chugai Seiyaku Kabushiki Kaisha, dated 2020).

T1: GPC3 peptide 401-430 (SEQ ID NO: 21) (human)
T1 construct: Synthetic 30-residue peptide of GPC3
T1 peptide: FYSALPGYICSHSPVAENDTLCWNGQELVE

T2: GPC3 peptide 281-310 (SEQ ID NO: 15) (human)
T2 construct: Synthetic 30-residue peptide of GPC3
T2 peptide: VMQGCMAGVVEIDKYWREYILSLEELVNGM

T3: GPC3 peptide 41-70 (SEQ ID NO: 3) (human)
T3 construct: Synthetic 30-residue peptide of GPC3
T3 peptide: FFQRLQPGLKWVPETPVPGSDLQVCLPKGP

T4: GPC3 peptide 161-190 (SEQ ID NO: 9) (human)
T4 construct: Synthetic 30-residue peptide of GPC3
T4 peptide: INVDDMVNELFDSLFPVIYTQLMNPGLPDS

T5: GPC3 peptide 421-450 (SEQ ID NO: 22) (human)
T5 construct: Synthetic 30-residue peptide of GPC3
T5 peptide: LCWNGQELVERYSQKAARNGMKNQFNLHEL

T6: GPC3 peptide 81-110 (SEQ ID NO: 5) (human)
T6 construct: Synthetic 30-residue peptide of GPC3
T6 peptide: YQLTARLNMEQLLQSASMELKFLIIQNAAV

T7: GPC3 peptide 461-490 (SEQ ID NO: 24) (human)
T7 construct: Synthetic 30-residue peptide of GPC3
T7 peptide: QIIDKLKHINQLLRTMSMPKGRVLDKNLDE

T8: GPC3 peptide 221-250 (SEQ ID NO: 12) (human)
T8 construct: Synthetic 30-residue peptide of GPC3
T8 peptide: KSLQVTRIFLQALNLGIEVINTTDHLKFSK

T9: GPC3 peptide 121-150 (SEQ ID NO: 7) (human)
T9 construct: Synthetic 30-residue peptide of GPC3
T9 peptide: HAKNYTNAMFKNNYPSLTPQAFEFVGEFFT

T10: GPC3 peptide 201-230 (SEQ ID NO: 11) (human)
T10 construct: Synthetic 30-residue peptide of GPC3
T10 peptide: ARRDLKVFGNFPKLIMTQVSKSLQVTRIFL

T11: GPC3 peptide 321-350 (SEQ ID NO: 17) (human)
T11 construct: Synthetic 30-residue peptide of GPC3
T11 peptide: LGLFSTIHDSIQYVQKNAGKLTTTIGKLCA

T12: GPC3 peptide 441-470 (SEQ ID NO: 23) (human)
T12 construct: Synthetic 30-residue peptide of GPC3
T12 peptide: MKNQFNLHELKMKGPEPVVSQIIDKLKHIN

T13: GPC3 peptide 381-410 (SEQ ID NO: 20) (human)
T13 construct: Synthetic 30-residue peptide of GPC3
T13 peptide: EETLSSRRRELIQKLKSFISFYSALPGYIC

T14: GPC3 peptide 541-570 (SEQ ID NO: 28) (human)
T14 construct: Synthetic 30-residue peptide of GPC3
T14 peptide: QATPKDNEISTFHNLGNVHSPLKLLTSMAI

T15: GPC3 peptide 301-330 (SEQ ID NO: 16) (human)
T15 construct: Synthetic 30-residue peptide of GPC3
T15 peptide: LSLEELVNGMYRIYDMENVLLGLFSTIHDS

T16: GPC3 peptide 521-550 (SEQ ID NO: 27) (human)
T16 construct: Synthetic 30-residue peptide of GPC3
T16 peptide: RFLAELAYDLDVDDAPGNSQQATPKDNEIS

T17: GPC3 peptide 501-530 (SEQ ID NO: 26) (human)
T17 construct: Synthetic 30-residue peptide of GPC3
T17 peptide: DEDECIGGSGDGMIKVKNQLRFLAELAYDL

T18: GPC3 peptide 551-580 (SEQ ID NO: 29) (human)
T18 construct: Synthetic 30-residue peptide of GPC3
T18 peptide: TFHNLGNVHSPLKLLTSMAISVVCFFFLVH

T19: GPC3 peptide 1-30 (SEQ ID NO: 1) (human)
T19 construct: Synthetic 30-residue peptide of GPC3
T19 peptide: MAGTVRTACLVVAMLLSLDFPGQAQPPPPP

T20: GPC3 peptide 361-390 (SEQ ID NO: 19) (human)
T20 construct: Synthetic 30-residue peptide of GPC3
T20 peptide: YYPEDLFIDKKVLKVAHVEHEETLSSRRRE

T21: GPC3 peptide 181-210 (SEQ ID NO: 10) (human)
T21 construct: Synthetic 30-residue peptide of GPC3
T21 peptide: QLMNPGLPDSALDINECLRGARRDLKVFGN

T22: GPC3 peptide 101-130 (SEQ ID NO: 6) (human)
T22 construct: Synthetic 30-residue peptide of GPC3
T22 peptide: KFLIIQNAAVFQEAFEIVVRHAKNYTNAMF

T23: GPC3 peptide 61-90 (SEQ ID NO: 4) (human)
T23 construct: Synthetic 30-residue peptide of GPC3
T23 peptide: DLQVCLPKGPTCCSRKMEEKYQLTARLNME

T24: GPC3 peptide 241-270 (SEQ ID NO: 13) (human)
T24 construct: Synthetic 30-residue peptide of GPC3
T24 peptide: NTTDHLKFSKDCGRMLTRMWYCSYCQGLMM

T25: GPC3 peptide 261-290 (SEQ ID NO: 14) (human)
T25 construct: Synthetic 30-residue peptide of GPC3
T25 peptide: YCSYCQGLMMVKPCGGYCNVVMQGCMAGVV

T26: GPC3 peptide 341-370 (SEQ ID NO: 18) (human)
T26 construct: Synthetic 30-residue peptide of GPC3
T26 peptide: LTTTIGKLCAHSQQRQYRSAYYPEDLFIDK

T27: GPC3 peptide 481-510 (SEQ ID NO: 25) (human)
T27 construct: Synthetic 30-residue peptide of GPC3
T27 peptide: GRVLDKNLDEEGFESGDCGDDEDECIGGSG

B1: GT165 antibody (antibody, IgG1, V domains shown)
VH: QVQLQQSGAELVGPGASVKISCKAFGYTFTNHHINWVKQRPGQGLDWIGYINPYNDYTNYNQKFKGKATLTVDKSSSTAYMELSSLTSEDSAVYYCARSDPAWFAYWGQGTLVTVSA
VL: DIQMTQSPSSLSASLGGKVTITCKASQDINKNIAWYQHKPGKGPRLLIWYTYTLQPGIPSRFSGSGSGRDYSFSISNLEPEDIATYYCLQYDNLPFTFGTGTKLEIKR
B2: GT607 antibody (antibody, IgG1, V domains shown)
VH: EVQLVESGGDVVRPGGSLKLSCAASGFTFSSYGMSWVRQLPDKRLEWVASVGNGGSYRYYPENLKGRFTISRDNTKNTLYLQISGLKSEDTAIYYCARRGAFPYFDVWGAGTTVTVSS
VL: QIVLTQSPAIMSASPGEKVTLACSASSSVTYMHWYQQKSGTSPKRWIYETSKLASGVPPRFSGSGSGTSYSLTISTMEAEDAATYYCQQWSSNPLTFGAGTKLELKR

How the values were obtained:
[1] = target: T28, AW3, C-terminally His-tagged recombinant product of positions 1 to 218 of GPC3 (human, UniProt P51654 25-218); assay: Western blot, pellets of CHO cells expressing the product
T28 construct: Expressed in CHO cells, cell pellets used in Western blot; The range is as printed and starts at position 1; not shown: C-terminal His tag
T28 sequence (P51654 25-218): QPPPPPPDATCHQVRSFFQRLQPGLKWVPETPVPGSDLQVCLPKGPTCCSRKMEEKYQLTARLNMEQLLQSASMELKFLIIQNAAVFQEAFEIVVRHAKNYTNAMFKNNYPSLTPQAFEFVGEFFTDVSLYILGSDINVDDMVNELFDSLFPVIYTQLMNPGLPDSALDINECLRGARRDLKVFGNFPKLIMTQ

[2] = target: T29, AW2, C-terminally His-tagged recombinant product of positions 1 to 196 of GPC3 (human, UniProt P51654 25-196); assay: as above
T29 construct: Expressed in CHO cells, cell pellets used in Western blot; The range is as printed and starts at position 1; also called AW2 (1-196); not shown: C-terminal His tag
T29 sequence (P51654 25-196): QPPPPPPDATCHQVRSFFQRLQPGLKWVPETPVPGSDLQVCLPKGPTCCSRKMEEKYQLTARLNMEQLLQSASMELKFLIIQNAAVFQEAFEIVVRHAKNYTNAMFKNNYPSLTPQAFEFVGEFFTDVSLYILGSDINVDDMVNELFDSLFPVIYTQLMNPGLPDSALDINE

[3] = target: T1, GPC3 peptide 401-430 (SEQ ID NO: 21); assay: peptide ELISA, peptide on plate
[4] = target: T2, GPC3 peptide 281-310 (SEQ ID NO: 15); assay: peptide ELISA, peptide on plate
[5] = target: T3, GPC3 peptide 41-70 (SEQ ID NO: 3); assay: peptide ELISA, peptide on plate
[6] = target: T4, GPC3 peptide 161-190 (SEQ ID NO: 9); assay: peptide ELISA, peptide on plate
[7] = target: T5, GPC3 peptide 421-450 (SEQ ID NO: 22); assay: peptide ELISA, peptide on plate
[8] = target: T6, GPC3 peptide 81-110 (SEQ ID NO: 5); assay: peptide ELISA, peptide on plate
[9] = target: T7, GPC3 peptide 461-490 (SEQ ID NO: 24); assay: peptide ELISA, peptide on plate
[10] = target: T8, GPC3 peptide 221-250 (SEQ ID NO: 12); assay: peptide ELISA, peptide on plate
[11] = target: T9, GPC3 peptide 121-150 (SEQ ID NO: 7); assay: peptide ELISA, peptide on plate
[12] = target: T10, GPC3 peptide 201-230 (SEQ ID NO: 11); assay: peptide ELISA, peptide on plate
[13] = target: T11, GPC3 peptide 321-350 (SEQ ID NO: 17); assay: peptide ELISA, peptide on plate
[14] = target: T12, GPC3 peptide 441-470 (SEQ ID NO: 23); assay: peptide ELISA, peptide on plate
[15] = target: T13, GPC3 peptide 381-410 (SEQ ID NO: 20); assay: peptide ELISA, peptide on plate
[16] = target: T14, GPC3 peptide 541-570 (SEQ ID NO: 28); assay: peptide ELISA, peptide on plate
[17] = target: T15, GPC3 peptide 301-330 (SEQ ID NO: 16); assay: peptide ELISA, peptide on plate
[18] = target: T16, GPC3 peptide 521-550 (SEQ ID NO: 27); assay: peptide ELISA, peptide on plate
[19] = target: T17, GPC3 peptide 501-530 (SEQ ID NO: 26); assay: peptide ELISA, peptide on plate
[20] = target: T18, GPC3 peptide 551-580 (SEQ ID NO: 29); assay: peptide ELISA, peptide on plate
[21] = target: T19, GPC3 peptide 1-30 (SEQ ID NO: 1); assay: peptide ELISA, peptide on plate
[22] = target: T20, GPC3 peptide 361-390 (SEQ ID NO: 19); assay: peptide ELISA, peptide on plate
[23] = target: T21, GPC3 peptide 181-210 (SEQ ID NO: 10); assay: peptide ELISA, peptide on plate
[24] = target: T22, GPC3 peptide 101-130 (SEQ ID NO: 6); assay: peptide ELISA, peptide on plate
[25] = target: T23, GPC3 peptide 61-90 (SEQ ID NO: 4); assay: peptide ELISA, peptide on plate
[26] = target: T24, GPC3 peptide 241-270 (SEQ ID NO: 13); assay: peptide ELISA, peptide on plate
[27] = target: T25, GPC3 peptide 261-290 (SEQ ID NO: 14); assay: peptide ELISA, peptide on plate
[28] = target: T26, GPC3 peptide 341-370 (SEQ ID NO: 18); assay: peptide ELISA, peptide on plate
[29] = target: T27, GPC3 peptide 481-510 (SEQ ID NO: 25); assay: peptide ELISA, peptide on plate

Row | Binder | binding result [1] | binding result [2] | binding result [3] | binding result [4] | binding result [5] | binding result [6] | binding result [7] | binding result [8] | binding result [9] | binding result [10] | binding result [11] | binding result [12] | binding result [13] | binding result [14] | binding result [15] | binding result [16] | binding result [17] | binding result [18] | binding result [19] | binding result [20] | further results
1 | B1 | no binding | no binding | no binding (tested: 2 µg/mL) | no binding (tested: 2 µg/mL) | no binding (tested: 2 µg/mL) | no binding (tested: 2 µg/mL) | no binding (tested: 2 µg/mL) | no binding (tested: 2 µg/mL) | no binding (tested: 2 µg/mL) | no binding (tested: 2 µg/mL) | no binding (tested: 2 µg/mL) | no binding (tested: 2 µg/mL) | no binding (tested: 2 µg/mL) | no binding (tested: 2 µg/mL) | no binding (tested: 2 µg/mL) | no binding (tested: 2 µg/mL) | no binding (tested: 2 µg/mL) | no binding (tested: 2 µg/mL) | no binding (tested: 2 µg/mL) | no binding (tested: 2 µg/mL) | binding result [21]: no binding (tested: 2 µg/mL); binding result [22]: no binding (tested: 2 µg/mL); binding result [23]: no binding (tested: 2 µg/mL); binding result [24]: no binding (tested: 2 µg/mL); binding result [25]: no binding (tested: 2 µg/mL); binding result [26]: no binding (tested: 2 µg/mL); binding result [27]: no binding (tested: 2 µg/mL); binding result [28]: no binding (tested: 2 µg/mL); binding result [29]: no binding (tested: 2 µg/mL)
2 | B2 | no binding | no binding | no binding (tested: 2 µg/mL) | no binding (tested: 2 µg/mL) | no binding (tested: 2 µg/mL) | no binding (tested: 2 µg/mL) | no binding (tested: 2 µg/mL) | no binding (tested: 2 µg/mL) | no binding (tested: 2 µg/mL) | no binding (tested: 2 µg/mL) | no binding (tested: 2 µg/mL) | no binding (tested: 2 µg/mL) | no binding (tested: 2 µg/mL) | no binding (tested: 2 µg/mL) | no binding (tested: 2 µg/mL) | no binding (tested: 2 µg/mL) | no binding (tested: 2 µg/mL) | no binding (tested: 2 µg/mL) | no binding (tested: 2 µg/mL) | no binding (tested: 2 µg/mL) | binding result [21]: no binding (tested: 2 µg/mL); binding result [22]: no binding (tested: 2 µg/mL); binding result [23]: no binding (tested: 2 µg/mL); binding result [24]: no binding (tested: 2 µg/mL); binding result [25]: no binding (tested: 2 µg/mL); binding result [26]: no binding (tested: 2 µg/mL); binding result [27]: no binding (tested: 2 µg/mL); binding result [28]: no binding (tested: 2 µg/mL); binding result [29]: no binding (tested: 2 µg/mL)
